Experiment: soluble on expression in E. coli; label from the status in PepcDB or PDB records
In the case of “NGVPSTNVNTPAPNTGQSTAQNTNTASPLPYNRATTLPAAGTEDLKKSVQALQNTLTELQALQLQTKQAHWNVSGTLWYTLHELLQDHYEGISKFADDVAERQLSVGASSDGRAITIVAASRLPEIPGGFLDDAQVIQFFTYQYETVGQRIHQRVGDVEKVDPTTANLLQEVEHIIEKYQWQMRAFLQNTPTDPNTGFDINNGKPVPLRGR”, the “soluble on expression in E. coli” value is reported as “soluble”. For “MVFDRQMKRGQRDWAVRQPDFKAAQYLKEEIGWRVADKVFDLTKFNPLVLDIGCGVGHIAPHLIKENVGKIIQVDMSGGMAQSSAKCEDPEVIVERRTVDEETLDGFHENQFDLLLTSMSAHWINHLPQWMRKCHDIVKPDCPFIGSMLAEDTLYELRCSLQLAELERIGGVSSHISPFVKTQDIGGLLSSAGFDMITLDSDEIQVGYPNMFALMYDLQLMGESHCTHRRNPTIRRDVLVAAEAIYQSMYSSDGKYPATFKIVSFIGWKPGPNMPKAAKRGSQTVSLKDIGKIVEDPEMMRKMSEKDGVDKKK”, the “soluble on expression in E. coli” value was “not soluble”. With “MGGGEVKMMSLLEEMKGIYSKKGGKVKPFEKFEGELKEGYRFEYEKKLCEIDVAMFGLISGDLNPVHFDEDFASKTRFGGRVVHGMLTTSLVSAAVARLPGTVVLLEQSFRYTSPVRIGDVVRVEGVVSGVEKNRYTIDVKCYTGDKVVAEGVVKVLIW” the “soluble on expression in E. coli” value was “soluble”. With “MTTMTIKNAMVLAAGLGTRMRPITDTIPKPLVKIAGKPMIDYALDALVEAGAETIVVNVHHHAEQMISHLGHRTDAEILISDERTQLMNSGGGLAKGLKLLKPGPVFVMNADLFWIGERLNAVSNLRKLAQFLDPARMDMALLCVDMDRTTGHNGKRDFNLAGEGKLTRYRDGDANPVVYAGAIAMDSRLLDDAPADAFNLNIYFDRAIEKDRLFGLSLDGHWITVGTPDAIDDAESIIRQFREKRFALEHHHHHH” the “soluble on expression in E. coli” value was “not soluble”. For “MAHHHHHHMRNSLRLRLSSTSSSLLRSTFWLRQCGSGGCGFSGGPGGYPTDADALAKILTQAKKGSFNGSSSSPSDFFDGRFVGGSPTMDPAMLQDMHQKLNQSLTPEVRESMKAMMESIQRGDGMPQMGMMAFGVGENEKGKKVARGAKLMFDPSTGKLSKDFVEKQLEDDDPVLPKETVGDYNTEGAIEVEFEEDARKEASVRENIPEAEVIVEEVPREK”, the “soluble on expression in E. coli” value was “not soluble”. With “MATPLWQTIYNNAVLLPESPKAIVHFLGGAFIAAAPQVTYRRLLEGLGDRGFAVIATPFINTFDHTTLADEVGRSYRLAYERLLALGLISPELPIFGVGHSMGSKLHLLMGCAQTSDRRGNVLLAFNNYSARRSIPLLGQLAPALDVTVEFSPSPARTLRLIRDRYSVANNLLVKFRNDEIDQTRDLIGALRDRFPETSEWLRLSGNHLTPVGQSLPQQTGLAWLDGVSQLASRELGRDLEVVTTAIADWCDRQLTAPATVVLEHHHHHH” the “soluble on expression in E. coli” value was “not soluble”. In the case of “MVGLADVAVLYSGGKDSNYALYWAIKNRFSVKFLVTMVSENEESYMYHTINANLTDLQARALGIPLVKGFTQGEKEKEVEDLKRVLSGLKIQGIVAGALASKYQRKRIEKVAKELGLEVYTPAWGRDAKEYMRELLNLGFKIMVVGVSAYGLDESWLGRILDESALEELITLNEKYKVHVAGEGGEFETFVLDMPLFKYKIVVDKAKKVWEPCTSSGKLIIEEAHLESKLEHHHHHH”, the “soluble on expression in E. coli” value is reported as “soluble”. In the case of “MGSDKIHHHHHHMFSEGENVAKATIPLALESAEKNLETSNENEKARRSSSDTAISVRGISKCYQIYDAPRDRLKQFIIPRLRLARQQSRQYFREFWALKGISFEVRKGETVGIIGRNGSGKSTLLQIICGTLTPTAGSVETRGRIAALLELGSGFNPEFTGRENIYMNGAVLGLTREEIDDRFDSIVSFADIGQFIDQPVKTYSSGMSVRLAFAVQAQVDPDILIVDEALSVGDVRFQAKCFARLQQLKDNGTSVLLVTHSSEQIVTHCSSALLLNDGMQFEIGEPRHVVNRYLDLLFGKERRNPDSPQAQPGDIFQEDKGYAESAYQLSTDSDVFQTRNGYNTHEYRWGDGTASILDFYLAANGEPYPSAITVGQTVTLAVSIKFHSDMWRPILGITIKTKDGVTISGTNSEMADLLDLQALVKKGAILVGKCSFQCRLGPGDYFVSLGLATRENDEIIPHDRRYDSIHFIVEPHNKFHGLADLALDLSISHIVESNQI”, the “soluble on expression in E. coli” value is reported as “not soluble”. With “MALVRFSPLYEFDRELGTLQRQMSRFLQPWPWTEAELKELSFAPAVEVKETDAAIELRVELPGIDPKDLDLQVTAEAVVLKGERRSEDRSEAEGVLRTEFRYGAFERVIPLPAQVKNTEAQADYQNGILVLTLPKRDEELHKVVKVDLGHLAAAPVAAEACERLEHHHHHH” the “soluble on expression in E. coli” value was “soluble”. In the case of “MGSDKIHHHHHHMNYLRLNNITKRFGSFIANDNINLSVASGSIHAILGENGAGKSTLMNIISGLYQPDAGEIYLQEQPIKITSPNEAIKLGIGMIYQHFMLIPKLTVTENIILGIEKTWRLNLEDKQQKIAALSQAYGLEIDPTAKVENLSVGAQQRVEILKVLYRQAKLLILDEPTAVLTPPEVESLIAILRQLASAGNTIIFISHKLEEVMNLCDSVTVLRQGKVVATTSTEAATSQQLATLMVGREVALQLNKSPTLPGEIILSVQNLQVADERNILAVNNVSFELRAGEILGIAGVDGNGQRELADAIAFVRTIKQGKIEFTPKHSSVGYIPEDRQTMGLVLQFSIAQNLILKAFKYLPFCRRFLLQQEAIANRAQAAMQEFDIRASGKDILVSQLSGGNQQKVVLARELALTPALIIAMQPTRGLDVGATIAVQSRILTERDRGAAILYISTELEEVMAMSDRIAVIYRGEFVAILDAATAKVEEIGLLMAGGIN”, the “soluble on expression in E. coli” value is reported as “not soluble”. For “MGSDKIHHHHHHSAHNKVSSQKLEAKNVNQVSNYSGDIDLLTVSQPTTPTTNNGQINQYFINRFDNAISLLNGKYVVNHNVLPQNTSGEEINILNESVKIANQQLIVGAQKIEKSDIDVKVVQKGNSIILAENPTTLKNSATSMATKHVGVTKVEFHWYGVRLFLSKNDVNKILKYGPTSVSIATIWMPTTWVVKLAASAAVACGWMSSVNGGIWIDWGLIPTKWGWQ”, the “soluble on expression in E. coli” value was “not soluble”. In the case of “GMWDETELGLYKVNEYVDARDTNMGAWFEAQVVRVTRKAPSRDEPCSSTSRPALEEDVIYHVKYDDYPENGVVQMNSRDVRARARTIIKWQDLEVGQVVMLNYNPDNPKERGFWYDAEISRKRETRTARELYANVVLGDDSLNDCRIIFVDEVFKIERPGE”, the “soluble on expression in E. coli” value is reported as “soluble”. For “MTKRGLGKGLDALLATSSLAREKQQVASLSQSMSAEGELADLSISNLKPGIYQPRKDLSPEALEELAASIQSQGIIQPIVVRHLPTGGYEIIAGERRWRAAKQAGLKQVPCLIKQVEDRGAIAMALIENIQREDLNAMEEAQALERLQNEFNLTHQQVAEVIGKSRTTVTNLLRLNQLSDDVKRLLETKQLEMGHARALLMLEGEQQVEIAQQVAKKQLTVRQTEQLVKKCLSDPSDAKNVSEDLEIQQLSQNLSEKLAAKVSIVRTPNGKSKVTISLDEPHKLELLIAKLQN”, the “soluble on expression in E. coli” value was “not soluble”. In the case of “MSLRTLYSGGLVFDGIGNLLEQHGVLVDGQKICRIAPLGEFEGFSDEKVDTSDGTLLPGLIDCHVHIVYSGEADPKSHLLKLRPGQIVINALENAKKTLSNGITSIRDLGGRDFLEFAVRDACNSGRQTGPTIRAAGRMICMTGGHGNAFGRVADGPDEVLKAVREQIHAGSDVIKLMATGGVMTPGVNPEDAHYSEEELRVGVNEGHRFNRKCASHAQGSAGILNAVNAGMDSIEHGIFMTQESLESMLKHQTYLVPTLSAVNNIYLNRDNGIPEFIVEKTLRIRERHHQSIKMFYKAGGKMAMGTDAGTPFNLHGENTNELQYMVDLGVSNLDVLKISTVNAADLMDLEDRGIIQEGFYADFLIVNGDPVKDISKVADRKNHRIVVKNGVHINEGHHHHHH”, the “soluble on expression in E. coli” value is reported as “soluble”. In the case of “METFGVFHKEDDEQMDLPPGFRFHPTDEELITHYLHKKVLDLGFSAKAIGEVDLNKAEPWELPYKAKIGEKEWYFFCVRDRKYPTGLRTNRATQAGYWKATGKDKEIFRGKSLVGMKKTLVFYRGRAPKGQKTNWVMHEYRLDGKLSAHNLPKTAKNEWVICRVFHKTAGGKKIPISTLIRIGSYGTGSSLPPLTDSSPYNDKTKTEPVYVPCFSNQAETRGTILNCFSNPSLSSIQPDFLQMIPLYQPQSLNISESSNPVLTQEQSVLQAMMENNRRQNFKTLSISQETGVSNTDNSSVFEFGRKRFDHQEVPSPSSGPVDLEPFWNY”, the “soluble on expression in E. coli” value is reported as “soluble”. With “MTARDDETIAFYSGHATAYTSRGQAPDRPHLETFLARLRAGAKILELGCGGGQDSEYMLSAGFDVHPTDGTPDIAKAAQARLGIPVRTLLFENIEDAALYDAVWANACLLHVPRLALPGIIGRIHTALKPGGVFYASFKAGEVEGRDTFGRYYNYPSKAWLEETYGQFAWTEVEIEARQGSGYDKLPTDWLHVTATKA” the “soluble on expression in E. coli” value was “soluble”. With “MEDLKHSDALVREQATKKLWRIWFQQKGMYGLEKIDQSQKLLDAGEITEAEVMLTQLIQEQPDFAEAWNRRAFLYYSMGEYQKSLADCQMVIQINPVHFGALHGIGLCYAALGKYAKAIKAFKRALEIQPYSLVNQKLILECTFRLSLEHHHHHH” the “soluble on expression in E. coli” value was “soluble”. With “MSSTAVQPPPPVPPPPPSAVPSAGKGIHSKLYNGMIGAADKFVPAKLRPLWMHPAGPKTIFFWAPVFKWGLVAAGLSDLARPADTISVSGCAALAATGIIWSRYSLVIIPKNYSLFAVNLFVGITQVVQLARAYHYHQSQEKLKQEQQQPAVQNLEHHHHHH” the “soluble on expression in E. coli” value was “not soluble”. With “NTPYLRPEMFPELAILQQNWQVIRDEGLHLQQLEQIKAADKYNDAGFNSFFKTGWKRFYLKWYEDAHPSASQLCPQTTALLRDIPSVKAAMFATLPDGSRLPRHRDPYAGSLRFHLGLATPNDDRCFIEVDGQRYSWRDGEGVLFDETYIHYAENTSGENRLILFCDIERPMRYRWAQKVNHWLGRHLMSAASAPN” the “soluble on expression in E. coli” value was “not soluble”. With “MNTVCTHCQAINRIPDDRLQDAAKCGRCGHELFDGEVINATGETLDKLLKDDLPVVIDFWAPWCGPCRNFAPIFEDVAEERSGKVRFVKVNTEAERELSARFGIRSIPTIMIFKHGQVVDMLNGAVPKAPFDSWLNEAL” the “soluble on expression in E. coli” value was “not soluble”. With “SQILDRKGRLIANIYDKEFRFYARFEEIPPRFIESLLAVEDTLFFEHGGINLDAIMRAMIKNAKSGRYTEGGSTLTQQFVKNMVLTREKTLTRKLKEAIISIRIEKVLSKEEILERYLNQTFFGHGYYGVKTASLGYFKKPLDKLTLKEITMLVALPRAPSFYDPTKNL” the “soluble on expression in E. coli” value was “not soluble”. With “MRITQEQAEAIFCEDLKQFGKTVEQSVKVCLTDAQIAALVSFCYNVETQAFCKSTLLKKLNNGAYESVPAELQKWNKVGGKAIQGFVNRRAAEAGLWAKGSYVCFNTQRVETKNTIGLLKIETLAPMIGSCSGLGGLLVGNGPLPALWF” the “soluble on expression in E. coli” value was “not soluble”. With “MGSSHHHHHHGGTGENLYFQGGSGMSRVPRPHIHQRISVEDIMKGNRRTLAKAITLAESSNPADSTRLGNLLREIHQMATVRTVPRFALSGSPGSGKSSLLDTLGYYLCEKKNMHVGVLAVDPSSTITHGSILGDKTRMEKLGTHLNSYIRPSPSGGHLGGVTSRAWEALEIFEAARFDVVFVETVGVGQSETQCKDLTDMMILLVPPASGDELQGIKKGVVEVADMVVVTKNDGRRKPLVQQTMSAYARAVMYTEEKQGFEKPVIAVSAEEGTNVPELWEAMLKMWNARLESGQIAHLRRAQSTKHFYNYFEMELLAKARRMTNLEMQNMAHRVWEHEMTPREAGDIMVLRTLREHLAADAAVQHDAGKRA” the “soluble on expression in E. coli” value was “not soluble”.
